Where two headings read alike, the source gives them in different places.
Key:
Experiment in all cases: two-hybrid library CCmax;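 also: natural log of median RNA to DNA barcode read ratio; higher means stronger binding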
[1] = target: T1, 4H2621-AA; details: mean of both orientations
T1 chain: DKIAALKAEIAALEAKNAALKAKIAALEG

[2] = target: T2, 4H2699-AA; details: mean of both orientations
T2 chain: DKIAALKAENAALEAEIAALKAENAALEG

[3] = target: T3, 4H2732-AA; details: mean of both orientations
T3 chain: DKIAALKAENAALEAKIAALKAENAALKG

[4] = target: T4, 4H2903-AA; details: mean of both orientations
T4 chain: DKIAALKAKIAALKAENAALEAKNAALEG

[5] = target: T5, 4H2931-AA; details: mean of both orientations
T5 chain: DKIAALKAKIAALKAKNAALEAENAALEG

[6] = target: T6, 4H2961-AA; details: mean of both orientations
T6 chain: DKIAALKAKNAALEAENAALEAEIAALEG

[7] = target: T7, 4H3015-AA; details: mean of both orientations
T7 chain: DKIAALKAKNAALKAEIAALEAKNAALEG

[8] = target: T8, 4H341-AA; details: mean of both orientations
T8 chain: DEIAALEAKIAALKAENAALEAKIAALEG

[9] = target: T9, 4H3438-AA; details: mean of both orientations
T9 chain: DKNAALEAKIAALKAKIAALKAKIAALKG

[10] = target: T10, 4H3595-AA
T10 chain: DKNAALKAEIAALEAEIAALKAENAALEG

[11] = target: T11, 4H3629-AA; details: mean of both orientations
T11 chain: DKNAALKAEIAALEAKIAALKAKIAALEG

[12] = target: T12, 4H380-AA; details: mean of both orientations
T12 chain: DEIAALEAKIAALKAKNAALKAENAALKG

[13] = target: T13, 4H406-AA; details: mean of both orientations
T13 chain: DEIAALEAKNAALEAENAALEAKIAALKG

[14] = target: T14, 4H56-AA; details: mean of both orientations
T14 chain: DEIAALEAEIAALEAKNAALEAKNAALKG

[15] = target: T15, 4H1401-AA
T15 chain: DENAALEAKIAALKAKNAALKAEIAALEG

[16] = target: T16, 4H2198-AA; details: mean of both orientations
T16 chain: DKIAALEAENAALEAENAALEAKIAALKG

[17] = target: T17, 4H2277-AA; details: mean of both orientations
T17 chain: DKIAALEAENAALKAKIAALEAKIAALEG

[18] = target: T18, 4H2466-AA; details: mean of both orientations
T18 chain: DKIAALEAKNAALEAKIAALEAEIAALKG

[19] = target: T19, 4H2505-AA; details: mean of both orientations
T19 chain: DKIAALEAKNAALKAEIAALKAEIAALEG

[20] = target: T20, 4H2553-AA
T20 chain: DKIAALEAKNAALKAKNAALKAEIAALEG

[21] = target: T21, 4H2620-AA; details: mean of both orientations
T21 chain: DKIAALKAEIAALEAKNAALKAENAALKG

[22] = target: T22, 4H2648-AA; details: mean of both orientations
T22 chain: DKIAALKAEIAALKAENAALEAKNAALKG

[23] = target: T23, 4H2729-AA; details: mean of both orientations
T23 chain: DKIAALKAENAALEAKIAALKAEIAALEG

[24] = target: T24, 4H2907-AA; details: mean of both orientations
T24 chain: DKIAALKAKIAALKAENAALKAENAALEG

[25] = target: T25, 4H3056-AA; details: mean of both orientations
T25 chain: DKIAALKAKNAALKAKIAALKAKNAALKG

[26] = target: T26, 4H3133-AA; details: mean of both orientations
T26 chain: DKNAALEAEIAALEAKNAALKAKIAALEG

[27] = target: T27, 4H317-AA
T27 chain: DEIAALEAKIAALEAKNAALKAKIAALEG

[28] = target: T28, 4H3343-AA; details: mean of both orientations
T28 chain: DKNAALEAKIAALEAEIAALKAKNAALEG

[29] = target: T29, 4H340-AA
T29 chain: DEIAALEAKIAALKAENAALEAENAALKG

[30] = target: T30, 4H3627-AA; details: mean of both orientations
T30 chain: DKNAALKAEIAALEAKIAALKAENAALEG

[31] = target: T31, 4H3844-AA; details: mean of both orientations
T31 chain: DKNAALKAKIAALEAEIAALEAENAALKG

[32] = target: T32, 4H429-AA; details: mean of both orientations
T32 chain: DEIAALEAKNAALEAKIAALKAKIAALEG

[33] = target: T33, 4H605-AA; details: mean of both orientations
T33 chain: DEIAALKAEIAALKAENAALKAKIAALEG

[34] = target: T34, 4H678-AA; details: mean of both orientations
T34 chain: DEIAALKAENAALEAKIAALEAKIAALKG

[35] = target: T35, P10-AA; details: mean of both orientations
T35 chain: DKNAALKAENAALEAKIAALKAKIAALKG

[36] = target: T36, 4H1310-AA; details: mean of both orientations
T36 chain: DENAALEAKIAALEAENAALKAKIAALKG

[37] = target: T37, 4H1597-AA; details: mean of both orientations
T37 chain: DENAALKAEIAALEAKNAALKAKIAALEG

[38] = target: T38, 4H171-AA
T38 chain: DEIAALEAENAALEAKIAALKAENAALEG

[39] = target: T39, 4H174-AA; details: mean of both orientations
T39 chain: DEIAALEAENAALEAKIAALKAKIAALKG

[40] = target: T40, 4H1842-AA; details: mean of both orientations
T40 chain: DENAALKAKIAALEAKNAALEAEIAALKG

[41] = target: T41, 4H1864-AA; details: mean of both orientations
T41 chain: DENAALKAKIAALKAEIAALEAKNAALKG

[42] = target: T42, O13-AA; details: mean of both orientations
T42 chain: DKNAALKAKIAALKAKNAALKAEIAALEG

[43] = target: T43, O14-AA; details: mean of both orientations
T43 chain: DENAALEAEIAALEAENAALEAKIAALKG

B1: 4H249-AA (peptide)
chain: DEIAALEAENAALKAKNAALKAEIAALEG
interaction score [1]: -1.28
interaction score [2]: -1.1
interaction score [3]: -0.302
interaction score [4]: -0.757
interaction score [5]: -1.53
interaction score [6]: 1.36
interaction score [7]: -1.1
interaction score [8]: 0.538
interaction score [9]: -1.6
interaction score ([10]; mean of both orientations): -1.4
interaction score [11]: -1.69
interaction score [12]: -1.27
interaction score [13]: 1.19
interaction score [14]: -1.62

B2: 4H1401-AA (peptide)
chain: DENAALEAKIAALKAKNAALKAEIAALEG
interaction score [15]: -1.49
interaction score [16]: 1.85
interaction score [17]: -1.59
interaction score [18]: -1.54
interaction score [19]: -1.67
interaction score [20]: -1.65
interaction score [21]: -1.63
interaction score [22]: 0.46
interaction score [23]: 0.705
interaction score [24]: -1.63
interaction score [25]: -1.2
interaction score [26]: -0.677
interaction score [27]: -1.49
interaction score [28]: -1.44
interaction score ([29]; mean of both orientations): -1.93
interaction score [30]: -1.38
interaction score [31]: -0.79
interaction score [32]: 0.239
interaction score [33]: -1.38
interaction score [34]: -0.21
interaction score [35]: -0.931

B3: 4H3606-AA (peptide)
chain: DKNAALKAEIAALEAENAALEAKIAALKG
interaction score [30]: -1.29
interaction score [31]: -1.17
interaction score [32]: 0.643
interaction score [33]: 0.159
interaction score [34]: -0.771
interaction score [35]: 0.12

B4: 4H1142-AA (peptide)
chain: DENAALEAEIAALKAKNAALEAKIAALKG
interaction score [36]: -1.26
interaction score ([15]; mean of both orientations): 0.545
interaction score [37]: 0.572
interaction score ([38]; mean of both orientations): -1.36
interaction score [39]: -0.4
interaction score [40]: -0.709
interaction score [41]: -1.38
interaction score [16]: -1.52
interaction score ([20]; mean of both orientations): -1.85
interaction score [21]: -1.34
interaction score [22]: -0.52
interaction score [24]: -1.24
interaction score [25]: -1.15
interaction score [26]: -0.11
interaction score ([29]; mean of both orientations): -1.35

B5: 4H1845-AA (peptide)
chain: DENAALKAKIAALEAKNAALEAKIAALEG
interaction score [16]: -1.5
interaction score ([20]; mean of both orientations): -1.84
interaction score [21]: -1.86
interaction score [22]: -1.59
interaction score [24]: -1.92
interaction score [25]: -1.58
interaction score [26]: -0.676
interaction score ([29]; mean of both orientations): -1.97

B6: 4H1385-AA (peptide)
chain: DENAALEAKIAALKAKIAALKAEIAALEG
interaction score [37]: -0.816
interaction score ([38]; mean of both orientations): -0.131
interaction score [39]: 0.819
interaction score [40]: -1.47
interaction score [41]: 0.56
interaction score [42]: -1.62
interaction score [43]: 2.08

B7: 4H2253-AA (peptide)
chain: DKIAALEAENAALKAEIAALKAKIAALEG
interaction score [18]: -1.68
interaction score [3]: -1.3
interaction score [5]: -1.52
interaction score [7]: -1.11
interaction score [9]: -1.2
interaction score [13]: -1.67
interaction score [14]: -1.23

B8: 4H2165-AA (peptide)
chain: DKIAALEAEIAALKAKNAALEAKIAALEG
interaction score [17]: -1.36
interaction score [18]: -1.49
interaction score [19]: -1.7
interaction score [23]: -1.3
interaction score [3]: -1.36
interaction score [5]: -1.58
interaction score [7]: -1.54
interaction score ([27]; mean of both orientations): 0.575
interaction score [28]: -0.847
interaction score [9]: -1.07
interaction score [30]: -1.58
interaction score [31]: -1.35
interaction score [13]: -1.15
interaction score [32]: -1.87
interaction score [14]: -0.766
interaction score [33]: -1.15
interaction score [34]: -0.25

B9: 4H1153-AA (peptide)
chain: DENAALEAENAALEAEIAALEAEIAALEG
interaction score [36]: -1.28
interaction score ([15]; mean of both orientations): -0.873
interaction score [16]: -1.56
interaction score [17]: -1.07
interaction score [18]: -1.53
interaction score [19]: 0.301
interaction score ([20]; mean of both orientations): -0.371
interaction score [21]: -1.41
interaction score [22]: -1.19
interaction score [23]: 0.0308
interaction score [24]: -1.67
interaction score [25]: 1.46
interaction score [26]: -2.15
interaction score ([27]; mean of both orientations): -1.45
interaction score [28]: -0.81
interaction score [29]: -1.49
interaction score [30]: -0.179
interaction score [31]: -0.484
interaction score [32]: 0.137
interaction score [33]: -1.75
interaction score [34]: -0.487

B10: 4H1350-AA (peptide)
chain: DENAALEAKIAALKAEIAALEAKIAALKG
interaction score [42]: 0.34
interaction score [43]: -0.655

B11: 4H171-AA (peptide)
chain: DEIAALEAENAALEAKIAALKAENAALEG
interaction score [38]: -1.01
interaction score [39]: -1.16
interaction score [40]: -1.26
interaction score [41]: 0.435
interaction score [42]: 2.21
interaction score [43]: -1.07
interaction score [35]: -1.48

B12: 4H1064-AA (peptide)
chain: DENAALEAEIAALEAKIAALEAKNAALKG
interaction score [1]: -1.07
interaction score [2]: -1.48
interaction score [4]: 1.45
interaction score [6]: -1.24
interaction score [8]: -1.26
interaction score [10]: 0.0501
interaction score [11]: 0.654
interaction score [12]: -0.648

B13: 4H1626-AA (peptide)
chain: DENAALKAEIAALKAENAALKAEIAALKG
interaction score ([38]; mean of both orientations): -1.66
interaction score [39]: -1.63
interaction score [40]: -1.57
interaction score [41]: -1.36
interaction score [13]: -1.8

B14: 4H1257-AA (peptide)
chain: DENAALEAENAALKAKIAALKAEIAALEG
interaction score [1]: -0.883
interaction score [2]: -0.951
interaction score [4]: -1.62
interaction score [6]: -1.08
interaction score [8]: -1.24
interaction score ([10]; mean of both orientations): 0.807
interaction score [11]: 0.329
interaction score [12]: -1.14
